Data on six molecules can be found in patent publication US20040072256A1 (published 2004).

The target in assay [1] is T1, hemagglutinin-neuraminidase (HN) glycoprotein of Sendai virus (Sendai virus).
T1 construct: whole, on cells; also called SV HN; Sendai HN
The assay can be described thus: flow cytometry, SV-infected vs uninfected 721.221 cells. (A flow cytometer gives signals particle by particle.)

The target of assay [2] is T2, hemagglutinin (HA) of Influenza virus A/PR/8/34 (H1N1) (Influenza virus A/PR/8/34 (H1N1), UniProt P03452 18-565).
T2 construct: whole, on cells; On IV-infected 1106mel cells; also called IV HA; viral HA
The experiment in a line: flow cytometry on IV-infected vs uninfected 1106mel cells.

The target in assay [3] is T2, hemagglutinin (HA) of Influenza virus …. The assay can be described thus: flow cytometry on IV-infected 1106mel cells (FIG. 11).
Assay [4] has the same target. The assay can be described thus: flow cytometry, IV-infected vs uninfected 1106mel cells.
The target in assay [5] is T1, hemagglutinin-neuraminidase (HN) …. The assay can be described thus: flow cytometry, 293T cells transfected with Sendai HN cDNA vs mock.

T1 sequence (P19758 whole entry): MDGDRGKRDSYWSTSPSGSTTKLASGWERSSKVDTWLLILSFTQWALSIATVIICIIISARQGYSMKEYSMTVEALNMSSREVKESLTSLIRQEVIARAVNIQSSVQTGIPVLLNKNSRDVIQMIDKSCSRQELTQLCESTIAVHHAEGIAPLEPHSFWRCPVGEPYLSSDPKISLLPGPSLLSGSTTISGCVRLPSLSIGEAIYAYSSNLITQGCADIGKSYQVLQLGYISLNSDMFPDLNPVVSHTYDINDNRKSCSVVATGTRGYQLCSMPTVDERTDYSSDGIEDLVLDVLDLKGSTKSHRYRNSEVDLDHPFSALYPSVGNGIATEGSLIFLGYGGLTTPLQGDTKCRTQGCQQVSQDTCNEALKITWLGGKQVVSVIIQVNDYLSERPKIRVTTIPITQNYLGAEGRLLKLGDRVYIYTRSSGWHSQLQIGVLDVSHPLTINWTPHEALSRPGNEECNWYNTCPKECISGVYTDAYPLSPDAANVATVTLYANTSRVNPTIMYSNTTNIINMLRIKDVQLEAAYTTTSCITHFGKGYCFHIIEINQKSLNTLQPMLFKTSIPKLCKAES

B1: NKp46D2-Ig fusion protein (Fc fusion)
chain: YDTPTLSVHPGPEVISGEKVTFYCRLDTATSMFLLLKEGRSSHVQRGYGKVQAEFPLGPVTTAHRGTYRCFGSYNNHAWSFPSEPVKLLVTGDIENTSLAPEDPTFPADTWGTYLLTTETGLQKDHALWDHTAQDPEPKSSDKTHTCPPCPAPEFEGAPSVFLFPPKPKDTLMISRTPEVTCVVVDVSHEDPEVKFNWYVDGVEVHNAKTKPREEQYNSTYRVVSVLTVLHQDWLNGKEYKCKVSNKALPAPIEKTISKAKGQPREPQVYTLPPSRDELTKNQVSLTCLVKGFYPSDIAVEWESNGQPENNYKTTPPVLDSDGSFFLYSKLTVDKSRWQQGNVFSCSVMHEALHNHYTQKSLSLSPGK
modifications: sialic acid residues (binding depends on them)
notes: Junction and leader used for secretion not described
As for B1, the “fold increase in staining on SV infection” value in assay [1] was around 10 fold.

B2: NKp30-Ig fusion protein (Fc fusion)
chain: LWVSQPPEIRTLEGSSAFLPCSFNASQGRLAIGSVTWFRDEVVPGKEVRNGTPEFRGRLAPLASSRFLHDHQAELHIRDVRGHDASIYVCRVEVLGLGVGTGNGTRLVVEKEHPQLGDPEPKSSDKTHTCPPCPAPEFEGAPSVFLFPPKPKDTLMISRTPEVTCVVVDVSHEDPEVKFNWYVDGVEVHNAKTKPREEQYNSTYRVVSVLTVLHQDWLNGKEYKCKVSNKALPAPIEKTISKAKGQPREPQVYTLPPSRDELTKNQVSLTCLVKGFYPSDIAVEWESNGQPENNYKTTPPVLDSDGSFFLYSKLTVDKSRWQQGNVFSCSVMHEALHNHYTQKSLSLSPGK
For the molecule B2, in assay [2], the binding result is on record as “no binding”.

B3: NKp46D1-Ig fusion protein (Fc fusion)
chain: QQQTLPKPFIWAEPHFMVPKEKQVTICCQGNYGAVEYQLHFEGSLFAVDRPKPPERINKVKFYIPDMNSRMAGQYSCIYRVGELWSEPSNLLDLVVTEMDPEPKSSDKTHTCPPCPAPEFEGAPSVFLFPPKPKDTLMISRTPEVTCVVVDVSHEDPEVKFNWYVDGVEVHNAKTKPREEQYNSTYRVVSVLTVLHQDWLNGKEYKCKVSNKALPAPIEKTISKAKGQPREPQVYTLPPSRDELTKNQVSLTCLVKGFYPSDIAVEWESNGQPENNYKTTPPVLDSDGSFFLYSKLTVDKSRWQQGNVFSCSVMHEALHNHYTQKSLSLSPGK
notes: Junction between domain and Fc not described
Turning to B3, the binding result in assay [3] was “no binding”.

B4: NKp44-Ig fusion protein (Fc fusion)
chain: QSKAQVLQSVAGQTLTVRCQYPPTGSLYEKKGWCKEASALVCIRLVTSSKPRTMAWTSRFTIWDDPDAGFFTVTMTDLREEDSGHYWCRIYRPSDNSVSKSVRFYLVVSPASASTQTPWTPRDLVSSQTQTQSCVPPTAGARQAPESPSTIPVPSQPQNSTLRPGPAAPDPEPKSSDKTHTCPPCPAPEFEGAPSVFLFPPKPKDTLMISRTPEVTCVVVDVSHEDPEVKFNWYVDGVEVHNAKTKPREEQYNSTYRVVSVLTVLHQDWLNGKEYKCKVSNKALPAPIEKTISKAKGQPREPQVYTLPPSRDELTKNQVSLTCLVKGFYPSDIAVEWESNGQPENNYKTTPPVLDSDGSFFLYSKLTVDKSRWQQGNVFSCSVMHEALHNHYTQKSLSLSPGK
modifications: sialylated oligosaccharides (binding to HA depends on them)
notes: Made in COS-7, purified on protein G
On to B4, for which, in assay [4], the “fold increase in staining on IV infection” value was around 4 fold. Further, in assay [5], the “fold increase in staining on HN transfection” value was found to be 2 fold. The “fold increase in staining on SV infection” value in assay [1] is 10 fold.

B5: NKAT-8-Ig fusion protein (Fc fusion)
chain: QEGVHRKPSFLALPGHLVKSEETVILQCWSDVMFEHFLLHREGKFNNTLHLIGEHHDGVSKANFSIGPMMPVLAGTYRCYGSVPHSPYQLSAPSDPLDMVIIGLYEKPSLSAQPGPTVQAGENVTLSCSSRSSYDMYHLSREGEAHERRLPAVRSINGTFQADFPLGPATHGGTYRCFGSFRDAPYEWSNSSDPLLVSVTGNPSNSWPSPTEPSSKTGNPRHLH
notes: extracellular domain; not shown: Fc portion of human IgG1
B5: in assay [2], the binding result is “no binding”.

B6: KIR-1-Ig fusion protein (Fc fusion)
chain: HEGVHRKPSLLAHPGRLVKSEETVILQCWSDVMFEHFLLHREGMFNDTLRLIGEHHDGVSKANFSISRMTQDLAGTYRCYGSVTHSPYQVSAPSDPLDIVIIGLYEKPSLSAQLGPTVLAGENVTLSCSSRSSYDMYHLSREGEAHERRLPAGPKVNGTFQADFPLGPATHGGTYRCFGSFHDSPYEWSKSSDPLLVSVTGNPSNSWPSPTEPSSKTGNPRHLH
notes: as for B5
Consider B6, for which the binding result in assay [2] is reported as “no binding”.
